{"source": "paper doi:10.1101/2025.05.15.654217", "molecular_target": "3×FLAG–SpaO^L-V5pBpa (Salmonella enterica serovar Typhimurium SL1344) (UniProt P40699)", "sequence (P40699 whole entry, looked up)": "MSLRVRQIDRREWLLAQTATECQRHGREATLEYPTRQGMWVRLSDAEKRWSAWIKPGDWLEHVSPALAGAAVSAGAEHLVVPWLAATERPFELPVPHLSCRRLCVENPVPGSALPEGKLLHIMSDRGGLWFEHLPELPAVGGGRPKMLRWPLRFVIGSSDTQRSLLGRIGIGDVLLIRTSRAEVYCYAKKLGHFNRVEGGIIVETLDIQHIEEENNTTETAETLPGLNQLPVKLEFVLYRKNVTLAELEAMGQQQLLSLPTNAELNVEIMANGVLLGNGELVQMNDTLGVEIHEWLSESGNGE", "assay": "cross-linking", "data": [{"substance": "M45-SpaO^short F34pBpa (natural protein)", "values": [{"measurement": "stoichiometry N (SpaO^short per SpaO^L)", "result": 2}]}]}
